“Also recorded” adds a separate entry of the source.
B1: SWAP1: FZD-1,2,5,7,8-specific Wnt agonist; anti-FZD antibody with LRP6 binder; heavy/light chains SEQ ID NO: 3 and 4 (antibody)
heavy: EVQLVESGGGLVQPGGSLRLSCAASGFTFTSYYISWVRQAPGKGLEWVAEISPYSGSTYYADSVKGRFTISADTSKNTAYLQMNSLRAEDTAVYYCALRARPPIRLHPRGSVMDYWGQGTLVTVSSGGGGSGGGGSGGGGSEVQLVESGGGLVQPGGSLRLSCAASGFTFSHYTLSWVRQAPGKGLEWVSVISGDGSYTYYADSVKGRFTISSDNSKNTLYLQMNSLRAEDTAVYYCARNFIKYVFANWGQGTLVTVSSASTKGPSVFPLAPSSKSTSGGTAALGCLVKDYFPEPVTVSWNSGALTSGVHTFPAVLQSSGLYSLSSVVTVPSSSLGTQTYICNVNHKPSNTKVDKKVEPKSCDKTHTCPPCPAPEAAGGPSVFLFPPKPKDTLMISRTPEVTCVVVDVSHEDPEVKFNWYVDGVEVHNAKTKPREEQYNSTYRVVSVLTVLHQDWLNGKEYKCKVSNKALGAPIEKTISKAKGQPREPQVYTLPPSREEMTKNQVSLTCLVKGFYPSDIAVEWESNGQPENNYKTTPPVLDSDGSFFLYSKLTVDKSRWQQGNVFSCSVMHEALHNHYTQKSLSLSPGK
light: DIQMTQSPSSLSASVGDRVTITCRASQDVSTAVAWYQQKPGKAPKLLIYSASFLYSGVPSRFSGSGSGTDFTLTISSLQPEDFATYYCQQSYTTPPTFGQGTKVEIKGGGGSGGGGSGGGGSDIELTQPPSVSVAPGQTARISCSGDNIGSFYVHWYQQKPGQAPVLVIYDKSNRPSGIPERFSGSNSGNTATLTISGTQAEDEADYYCQSYANTLSLVFGGGTKLTVLGQPKAAPSVTLFPPSSEELQANKATLVCLISDFYPGAVTVAWKADSSPVKAGVETTTPSKQSNNKYAASSYLSLTPEQWKSHRSYSCQVTHEGSTVEKTVAPTECS
B2: SWAP2: FZD1,2,7-specific Wnt agonist; anti-FZD antibody with LRP6 binder; heavy/light chains SEQ ID NO: 5 and 6 (antibody)
heavy: EVQLVESGGGLVQPGGSLRLSCAASGFTFTSYYISWVRQAPGKGLEWVAEISPYSGSTYYADSVKGRFTISADTSKNTAYLQMNSLRAEDTAVYYCALRARPPIRLHPRGSVMDYWGQGTLVTVSSGGGGSGGGGSGGGGSEVQLVESGGGLVQPGGSLRLSCAASGFNISSSYIHWVRQAPGKGLEWVAYIYSSYGSTYYADSVKGRFTISADTSKNTAYLQMNSLRAEDTAVYYCARASWYALDYWGQGTLVTVSSASTKGPSVFPLAPSSKSTSGGTAALGCLVKDYFPEPVTVSWNSGALTSGVHTFPAVLQSSGLYSLSSVVTVPSSSLGTQTYICNVNHKPSNTKVDKKVEPKSCDKTHTCPPCPAPEAAGGPSVFLFPPKPKDTLMISRTPEVTCVVVDVSHEDPEVKFNWYVDGVEVHNAKTKPREEQYNSTYRVVSVLTVLHQDWLNGKEYKCKVSNKALGAPIEKTISKAKGQPREPQVYTLPPSREEMTKNQVSLTCLVKGFYPSDIAVEWESNGQPENNYKTTPPVLDSDGSFFLYSKLTVDKSRWQQGNVFSCSVMHEALHNHYTQKSLSLSPGK
light: DIQMTQSPSSLSASVGDRVTITCRASQDVSTAVAWYQQKPGKAPKLLIYSASFLYSGVPSRFSGSGSGTDFTLTISSLQPEDFATYYCQQSYTTPPTFGQGTKVEIKGGGGSGGGGSGGGGSDIQMTQSPSSLSASVGDRVTITCRASQSVSSAVAWYQQKPGKAPKLLIYSASSLYSGVPSRFSGSRSGTDFTLTISSLQPEDFATYYCQQYWYGVAPITFGQGTKVEIKRTVAAPSVFIFPPSDEQLKSGTASVVCLLNNFYPREAKVQWKVDNALQSGNSQESVTEQDSKDSTYSLSSTLTLSKADYEKHKVYACEVTHQGLSSPVTKSFNRGEC

Key:
Assay type in all cases: cell-based
[1] = tested on: mouse AT2 organoid cultures; assay: Mouse AT2 cell organoid expansion, CellTiter-Glo assay; conditions: SWAP in combination with RSPO2; C59 present; FIG. 9
Protocol: (§1) In all of the AT2 cell organoid experiments, the Wnt signaling inhibitor, C59, was used to prevent endogenous secretion of Wnt ligands. […] AT2 cell organoid growth was assessed with the CellTiter Glo assay.

[2] = tested on: human AT2 cell organoid; assay: Human AT2 cell organoid growth, CellTiter Glo assay; conditions: for self-renewal and expansion of human AT2 cells: summary of organoid results
Protocol: For ex vivo studies, 3D organoid cultures (see, e.g., Zacharias, W. et al. (2018) Nature 555:251-257 and Barkauskas et al. (2017) Development 144:986-997) were constructed by combining primary human lung fibroblasts from healthy, pulmonary fibrosis, or COPD patients with alveolar epithelial cells (AT2 and AEP cells) from patients. Organoids were cultured in SAGM medium with growth factor free Matrigel. The Wnt antagonist and agonist were added in a sequential or concurrent manner to determine the effect on the fibroblast/myofibroblast proliferation, matrix production, alveolar epithelial cell proliferation and AT1/AT2 cell fate trans-differentiation. Alveolar organoids can also be cultured directly from human distal lung cells including purified AT2 cells (Kobayashi et al., (2020) supra).
as §1

[3] = tested on: human AT2 cell organoid; assay: Human AT2 organoid size (diameter, microscopy); conditions: in the absence of RSPO

| Molecule | expansion of mouse AT2 organoid cultures (CellTiter-Glo) [1] | human AT2 cell organoid growth (CellTiter Glo), compared with Chir99021 ([2]; SWAP in combination with RSPO1, C59 present, FIGS. 5A and 5B) | self-renewal and expansion of human AT2 cells [2] | effectiveness on human AT2 organoid expansion versus Chir99021 ([2]; 10 nM concentration, in the absence of RSPO, FIG. 8) | human AT2 organoid culture outgrowth/viability (CellTiter Glo) ([2]; SWAP alone, in the absence of RSPO, C59 present, FIG. 8) | human AT2 cell organoid growth as organoid size (diameter) ([3]; C59 present, FIG. 6) | numbers of organoids and organoid size by microscopy ([3]; FIG. 8) |
| --- | --- | --- | --- | --- | --- | --- | --- |
| B1 | led to the expansion of mouse AT2 organoid cultures | enhancement of human AT2 cell organoid growth that surpassed the growth observed upon treatment with the small molecule Wnt signaling activator, Chir99021; also recorded: more effective than the small molecule, CHIR99021 | promotes the self-renewal and expansion of human AT2 cells |  |  |  |  |
| B2 | led to the expansion of mouse AT2 organoid cultures |  | promotes the self-renewal and expansion of human AT2 cells | more effective than the small molecule Wnt pathway activator, Chir99021 | induced human AT2 organoid culture outgrowth/viability as assessed by the CellTiter Glo assay in a concentration-dependent manner; also recorded: induce human AT2 cell organoid expansion alone (in the absence of RSPO) in a dose-dependent manner | expand AT2 organoids | increased numbers of organoids and organoid size |

Reference: patent US20240391991A1, “MODULATION OF WNT SIGNALLING IN PULMONARY DISORDERS” (Surrozen Operating, Inc., priority 2021, published 2024)
